In this experiment the target is methemoglobin (UniProt P69905). Description: ELISA.

pEC50: −log10 of the molar value.

Usually pEC50 stands for −log10 of the EC50, conventionally taken in molar units. A lower pEC50 goes with a large EC50. Turning to “purified wild-type ShuA (non-phage-displayed) (from UniProt P72412) (natural protein; other documents disagree on this pair)”, the pEC50 was 6.28.
“DEPC-treated wild-type ShuA (from UniProt P72412 1-660) (natural protein)” came in with a percent loss of hemoglobin binding against the untreated sample of 60%.
“purified ShuA Ala-L11 (non-phage-displayed) (from UniProt P72412 1-660) (natural protein)”: the pEC50 was 6.28.
In turn, “DEPC-treated wild-type ShuA further treated with hydroxylamine (from UniProt P72412 1-660) (natural protein)” registered a percent loss of hemoglobin binding against the untreated sample of 40%.
As for “purified ShuA H86A/H420A (non-phage-displayed) (natural protein)”, the pEC50 is 5.16.

The values above are taken from publication PMC5564213.
